Test results taken from PMC12449476, “Transient ligand contacts of the intrinsically disordered N-terminus of neuropeptide Y2 receptor regulate arrestin-3 recruitment” (Nature Communications, 2025).

Experiments:
WT Nluc-Y2R-eYFP [1] = target: T1, WT Nluc-Y2R-eYFP (Homo sapiens, UniProt P49146); details: cited from earlier work
T1 construct: expressed in transfected cells; host or cells: membrane preparations of transiently transfected HEK293
T1 sequence (P49146 1-381): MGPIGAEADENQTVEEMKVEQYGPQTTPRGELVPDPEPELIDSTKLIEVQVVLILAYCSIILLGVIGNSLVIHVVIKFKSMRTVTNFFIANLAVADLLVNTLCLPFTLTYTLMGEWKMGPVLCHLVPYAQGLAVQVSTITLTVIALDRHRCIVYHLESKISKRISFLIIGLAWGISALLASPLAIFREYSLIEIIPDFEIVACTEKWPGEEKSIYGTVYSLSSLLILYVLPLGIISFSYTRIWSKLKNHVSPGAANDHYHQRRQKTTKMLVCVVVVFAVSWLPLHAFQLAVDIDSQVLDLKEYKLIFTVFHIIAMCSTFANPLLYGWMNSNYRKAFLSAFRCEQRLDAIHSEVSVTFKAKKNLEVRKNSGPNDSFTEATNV
From the text: In the following, we are addressing the Reviewer’s comments point‐by‐point. We quote statements from the Reviewer in bold face. We refer to changes made in the manuscript in yellow italics. Reviewer #1 (Remarks to the Author): In this work ...

WT Nluc-Y2R-eYFP [2] = target: T1, WT Nluc-Y2R-eYFP; assay: NanoBRET equilibrium ligand binding
Experimental: Briefly, for each data point, membranes containing 0.03 μg total protein were suspended in ice-cold BRET binding buffer (Hank’s balanced salt solution (HBSS) containing 20 mM HEPES (pH 7.4), 0.1% bovine serum albumin (BSA)). The assay was performed in solid black 96-WP with a total assay volume of 100 μL in technical duplicate or triplicate. […] Raw BRET was calculated as the ratio of fluorescence to luminescence, and the background value of the unspecific binding controls was subtracted to obtain the netBRET signal.

Nluc-Y2R-eYFP Δ2-41 = target: T2, Nluc-Y2R-eYFP Δ2-41 (Homo sapiens, UniProt P49146); assay: NanoBRET equilibrium ligand binding
T2 construct: expressed in transfected cells; host or cells: membrane preparations of transiently transfected HEK293
T2 sequence (P49146 with tags, fused parts or gaps): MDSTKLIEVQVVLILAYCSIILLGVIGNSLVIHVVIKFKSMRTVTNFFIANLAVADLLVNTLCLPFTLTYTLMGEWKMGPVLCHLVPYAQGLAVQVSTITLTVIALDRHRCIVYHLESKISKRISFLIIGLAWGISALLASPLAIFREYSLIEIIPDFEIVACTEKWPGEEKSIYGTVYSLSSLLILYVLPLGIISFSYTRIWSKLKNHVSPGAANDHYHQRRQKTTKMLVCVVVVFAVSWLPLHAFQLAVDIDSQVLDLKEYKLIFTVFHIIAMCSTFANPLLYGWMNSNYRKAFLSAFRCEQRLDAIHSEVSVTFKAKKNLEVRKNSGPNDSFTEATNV
Experimental: Briefly, for each data point, membranes containing 0.03 μg total protein were suspended in ice-cold BRET binding buffer (Hank’s balanced salt solution (HBSS) containing 20 mM HEPES (pH 7.4), 0.1% bovine serum albumin (BSA)). The assay was performed in solid black 96-WP with a total assay volume of 100 μL in technical duplicate or triplicate. […] To determine unspecific binding, 100 µM of the Y2R antagonist JNJ-31020028 (Selleck Europe) were added to each well. […] To start the dissociation measurement, the antagonist JNJ-31020028 was added to a final concentration of 50 µM (20 µL) using the built-in injector system of the plate reader and the BRET decay was measured for 20 min. Raw BRET was calculated as the ratio of fluorescence to luminescence, and the background value of the unspecific binding controls was subtracted to obtain the netBRET signal.

K18-Tamra-NPY: tetramethylrhodamine(Tamra)-labeled peptide (K^18-Tamra-NPY)
KD,high (WT Nluc-Y2R-eYFP [1]; G-protein-dependent high-affinity state): subnanomolar
Kd (WT Nluc-Y2R-eYFP [1]; G-protein-independent low-affinity state): ~0.3 µM
BRETmax (WT Nluc-Y2R-eYFP [2]; HEK293 membranes, 10 min RT, mean, 95% CI 0.0273 to 0.0311): 0.0292
Fraction high affinity (WT Nluc-Y2R-eYFP [2]; mean, 95% CI 0.0352 to 0.0881): 0.0617
KD, high replicates (log) (WT Nluc-Y2R-eYFP [2]; replicate 1): -9.88
KD, low replicates (log) (WT Nluc-Y2R-eYFP [2]; replicate 1): -6.52
KD, high replicates (log) (WT Nluc-Y2R-eYFP [2]; replicate 2): -9.40
KD, low replicates (log) (WT Nluc-Y2R-eYFP [2]; replicate 2): -6.56
KD, high replicates (log) (WT Nluc-Y2R-eYFP [2]; replicate 3): -9.43
KD, low replicates (log) (WT Nluc-Y2R-eYFP [2]; replicate 3): -6.54
BRETmax (Nluc-Y2R-eYFP Δ2-41; HEK293 membranes, 10 min RT, mean, 95% CI 0.5907 to 0.7133, P<0.0001 vs WT): 0.6520
Low-affinity binding constant reduction vs wild-type (Nluc-Y2R-eYFP Δ2-41; NanoBRET, HEK293 membranes): about two-fold reduced
Fraction high affinity (Nluc-Y2R-eYFP Δ2-41; mean, 95% CI 0.0357 to 0.0467): 0.0412
KD, high replicates (log) (Nluc-Y2R-eYFP Δ2-41; replicate 1): -9.51
KD, low replicates (log) (Nluc-Y2R-eYFP Δ2-41; replicate 1): -6.16
KD, high replicates (log) (Nluc-Y2R-eYFP Δ2-41; replicate 2): -9.76
KD, low replicates (log) (Nluc-Y2R-eYFP Δ2-41; replicate 2): -6.18
KD, high replicates (log) (Nluc-Y2R-eYFP Δ2-41; replicate 3): -9.64
KD, low replicates (log) (Nluc-Y2R-eYFP Δ2-41; replicate 3): -6.21
